Results: doi:10.64898/2025.12.09.693204 (bioRxiv, 2025)

Molecular target: Homo sapiens importin-β (Homo sapiens, UniProt Q14974 1-876)
Assay: partitioning into phase-separated condensates

Homo sapiens importin-β, sequence (Q14974 whole entry): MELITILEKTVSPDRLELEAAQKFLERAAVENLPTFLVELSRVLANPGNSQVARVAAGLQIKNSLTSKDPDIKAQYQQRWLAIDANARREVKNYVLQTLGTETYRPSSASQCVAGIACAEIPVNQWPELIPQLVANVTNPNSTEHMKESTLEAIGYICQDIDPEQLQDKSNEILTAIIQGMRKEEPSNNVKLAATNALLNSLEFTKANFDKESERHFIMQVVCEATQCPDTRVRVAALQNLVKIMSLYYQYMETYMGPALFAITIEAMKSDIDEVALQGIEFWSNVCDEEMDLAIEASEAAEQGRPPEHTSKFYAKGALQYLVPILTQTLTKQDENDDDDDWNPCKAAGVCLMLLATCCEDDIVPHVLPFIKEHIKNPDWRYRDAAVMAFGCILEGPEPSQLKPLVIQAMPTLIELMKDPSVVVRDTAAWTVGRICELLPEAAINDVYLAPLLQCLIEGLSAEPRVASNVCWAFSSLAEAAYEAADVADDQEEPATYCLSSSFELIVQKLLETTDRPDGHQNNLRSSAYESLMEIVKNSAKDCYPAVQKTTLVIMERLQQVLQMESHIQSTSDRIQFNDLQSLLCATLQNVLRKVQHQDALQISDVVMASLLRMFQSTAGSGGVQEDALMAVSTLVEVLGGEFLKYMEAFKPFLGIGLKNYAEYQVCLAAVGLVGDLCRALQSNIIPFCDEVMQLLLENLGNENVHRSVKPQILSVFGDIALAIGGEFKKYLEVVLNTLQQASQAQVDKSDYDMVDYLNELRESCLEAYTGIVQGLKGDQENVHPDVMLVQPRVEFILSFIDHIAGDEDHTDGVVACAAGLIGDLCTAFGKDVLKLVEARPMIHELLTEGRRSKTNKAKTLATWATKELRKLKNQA

binding result: binds
B1: Homo sapiens NUP98 FG domain (residues 1-505, GLEBS domain residues 157-213 excluded) (domain or fragment, UniProt P52948 1-505, looked up)
chain: MFNKSFGTPFGGGTGGFGTTSTFGQNTGFGTTSGGAFGTSAFGSSNNTGGLFGNSQTKPGGLFGTSSFSQPATSTSTGFGFGTSTGTANTLFGTASTGTSLFSSQNNAFAQNKPTGFGNFGTSTSSGGLFGTTNTTSNPFGSTSGSLFGPSSFTAAGPQNQVGAGTTTGLFGSSPATSSATGLFSSSTTNSGFAYGQNKTAFGTSTTGFGTNPGGLFGQQNQQTTSLFSKPFGQATTTQNTGFSFGNTSTIGQPSTNTMGLFGVTQASQPGGLFGTATNTSTGTAFGTGTGLFGQTNTGFGAVGSTLFGNNKLTTFGSSTTSAPSFGTTSGGLFGNKPTLTLGTNTNTSNFGFGTNTSGNSIFGSKPAPGTLGTGLGAGFGTALGAGQASLFGNNQPKIGGPLGTGAFGAPGFNTTTATLGFGAPQAPVALTDPNASAAQQAVLQQHI
